In general, Kd refers to the equilibrium constant for the complex coming apart.

We go through one molecule from paper doi:10.1101/151043 (bioRxiv, 2017).

Assay [1] has as its target recombinant human serum albumin from S. cerevisiae, biotin labelled (Homo sapiens, UniProt P02768, EZ-Link NHS-PEG4-Biotin labelled). Nature of the assay: SPR.
For another assay, the target named is mouse serum albumin (Mus musculus, UniProt P07724, EZ-Link NHS-PEG4-Biotin labelled). Description: SPR. On the technique in general: SPR reads the build-up and loss of mass on a sensor chip optically.
Sequence of mouse serum albumin (P07724 25-608): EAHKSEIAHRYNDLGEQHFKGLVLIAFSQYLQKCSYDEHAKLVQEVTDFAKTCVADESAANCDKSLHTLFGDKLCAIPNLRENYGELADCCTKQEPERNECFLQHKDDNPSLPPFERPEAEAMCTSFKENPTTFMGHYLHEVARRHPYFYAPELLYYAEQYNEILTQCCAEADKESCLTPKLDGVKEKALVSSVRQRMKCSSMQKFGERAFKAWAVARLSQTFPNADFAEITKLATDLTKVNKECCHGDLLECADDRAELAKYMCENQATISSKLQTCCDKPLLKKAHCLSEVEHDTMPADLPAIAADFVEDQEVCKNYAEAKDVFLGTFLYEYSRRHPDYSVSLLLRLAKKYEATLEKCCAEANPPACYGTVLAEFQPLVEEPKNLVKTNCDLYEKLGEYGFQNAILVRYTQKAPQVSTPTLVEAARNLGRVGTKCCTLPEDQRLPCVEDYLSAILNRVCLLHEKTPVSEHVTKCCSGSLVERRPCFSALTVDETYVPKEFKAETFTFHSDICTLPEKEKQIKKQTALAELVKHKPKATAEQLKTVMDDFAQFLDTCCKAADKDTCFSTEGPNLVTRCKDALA

Sequence of recombinant human serum albumin from S. cerevisiae, biotin labelled (P02768 25-609): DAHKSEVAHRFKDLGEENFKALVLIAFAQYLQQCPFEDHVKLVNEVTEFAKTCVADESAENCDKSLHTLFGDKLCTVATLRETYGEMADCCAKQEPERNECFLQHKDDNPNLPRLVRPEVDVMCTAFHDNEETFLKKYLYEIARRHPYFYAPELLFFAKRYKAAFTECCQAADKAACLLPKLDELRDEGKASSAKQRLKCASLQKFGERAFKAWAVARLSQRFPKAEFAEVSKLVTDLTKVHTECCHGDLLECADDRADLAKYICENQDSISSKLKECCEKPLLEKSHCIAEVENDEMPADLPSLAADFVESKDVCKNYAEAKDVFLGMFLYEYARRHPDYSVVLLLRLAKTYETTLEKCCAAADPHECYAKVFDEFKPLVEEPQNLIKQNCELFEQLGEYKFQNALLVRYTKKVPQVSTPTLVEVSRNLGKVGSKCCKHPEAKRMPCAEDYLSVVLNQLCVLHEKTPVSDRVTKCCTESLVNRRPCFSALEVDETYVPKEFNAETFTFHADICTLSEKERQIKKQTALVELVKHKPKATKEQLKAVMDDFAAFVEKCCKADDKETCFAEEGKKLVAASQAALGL

B1: Nb.b201 (VHH)
VHH: QVQLQESGGGLVQAGGSLRLSCAASGYISDAYYMGWYRQAPGKEREFVATITHGTNTYYADSVKGRFTISRDNAKNTVYLQMNSLKPEDTAVYYCAVLETRSYSFRYWGQGTQVTVSS
In the case of B1, the Kd in assay [1] was 430 nM. In addition, the binding result with mouse serum albumin is “no binding”.
